The results in this text go back to US20140017234A1.

Where “and” joins values, the source holds several entries; their conditions need not be identical. Identical values can stand only once. Like-named read-outs stand apart in the source and are kept apart here. A value given as a limit tells only on which side of the number the result lay.

Experiment [1] concerns the target HIV-1 YU-2 Env (gp120) mutant T278A (HIV-1 strain YU-2) (UniProt P35961).
Experiment [2] concerns the target HIV-1 YU-2 Env (gp120) mutant N276S (HIV-1 strain YU-2) (UniProt P35961).
Experiment [3] concerns the target HIV-1 YU-2 Env (gp120) mutant A281S (HIV-1 strain YU-2) (UniProt P35961).
In experiment [4] the target is HIV-1 YU-2 Env (gp120) mutant A281T (HIV-1 strain YU-2) (UniProt P35961).
The target of experiment [5] is HIV-1 YU-2 Env (gp120) mutant N279K (HIV-1 strain YU-2) (UniProt P35961).
For experiment [6], the target named is HIV-1 YU-2 Env (gp120) mutant A281T (HIV-1 strain YU-2) (UniProt P35961). The experiment can be described thus: cell-based or functional assay.
Experiment [7] deals with HIV-1 YU-2 Env (gp120) mutant N280D (HIV-1 strain YU-2) (UniProt P35961).
For experiment [8], the target named is HIV-1 YU-2 Env (gp120) mutant N279K (HIV-1 strain YU-2) (UniProt P35961). The source holds these as a separate data set.
The target of experiment [9] is clade A/E 93TH057-derived gp120 core (HIV-1 clade A/E strain 93TH057).
The target of experiment [10] is HIV-1 YU-2 Env (gp120) mutant N280D (HIV-1 strain YU-2) (UniProt P35961). The source holds these as a separate data set.
The target in experiment [11] is HIV-1 YU-2 Env (gp120) mutant N280Y (HIV-1 strain YU-2) (UniProt P35961).
Experiment [12] has the same target. The source holds these as a separate data set.

Take “45-46m7 IgG (45-46m2 + HC W47V) (antibody)”: the IC50 (pseudovirus neutralization) in [1] was 0.001 µg/mL; in experiment [2], 0.003 µg/mL. This substance had an IC50 (read off the curve) in experiment [3] of 0.01 µg/mL. The same substance registered an IC50 (pseudovirus neutralization, TZM-bl cells), first of the two values given in [4] of 0.1 µg/mL. For the same substance, the IC50 (pseudovirus neutralization, TZM-bl cells), second of the two values given in experiment [4] was above 50 µg/mL. Moreover, the IC50 (pseudovirus neutralization, TZM-bl cells) in [5] is 2.41 µg/mL; with YU-2^N279H (HIV-1), 0.245 µg/mL; in experiment [7] it was 0.139 µg/mL; in [8] it was 2.41 µg/mL. Further, in experiment [6], the plateau of the in vitro neutralization curve worked out at 50%.
A word on the Kd: it is the constant that tells how readily two partners part at equilibrium. Lower therefore signals a tighter complex. Consider NIH45-46 Fab, for which the Kd in experiment [9] was 0.221 µM and 0.178 µM.
In experiment [4], “45-46m28 IgG (45-46m2 + HC W47T) (antibody)” returned an IC50 (pseudovirus neutralization, TZM-bl cells), first of the two values given of 0.1 µg/mL and an IC50 (pseudovirus neutralization, TZM-bl cells), second of the two values given above 50 µg/mL. This substance gave an IC50 (pseudovirus neutralization, TZM-bl cells) in experiment [5] of 0.65 µg/mL. Besides, the IC50 (pseudovirus neutralization, TZM-bl cells) in experiment [8] was 0.652 µg/mL.
Take NIH45-46^G54W IgG (antibody): the IC50 (pseudovirus neutralization) in experiment [1] was 0.001 µg/mL; in [2] it was 0.004 µg/mL. The IC50 (pseudovirus neutralization, TZM-bl cells) in experiment [10] is above 50 µg/mL; in [11] it was above 50 µg/mL; in experiment [5], above 50 µg/mL; with YU-2^R456W (HIV-1) it was 5.67 µg/mL; with YU-2^N279H (HIV-1), above 50 µg/mL. For the same substance, the IC50 (pseudovirus neutralization, TZM-bl cells), first of the two values given in [4] was found to be 0.1 µg/mL. In [4], the IC50 (pseudovirus neutralization, TZM-bl cells), second of the two values given was above 50 µg/mL.
Regarding NIH45-46^G54W Fab, in [9], the dissociation constant Kd is 0.062 µM and 0.072 µM.
In experiment [4], “45-46m25 IgG (45-46m2 + HC W47I) (antibody)” had an IC50 (pseudovirus neutralization, TZM-bl cells), first of the two values given of 0.1 µg/mL and an IC50 (pseudovirus neutralization, TZM-bl cells), second of the two values given above 50 µg/mL. The substance also displayed an IC50 (pseudovirus neutralization, TZM-bl cells) in experiment [7] of 0.19 µg/mL. The substance further displayed an IC50 (pseudovirus neutralization, TZM-bl cells) in experiment [8] of 2.59 µg/mL.
Turning to “45-46m2 Fab (NIH45-46 with G54W in the heavy chain and S28Y in the light chain)”, in experiment [9], the dissociation constant (Kd) is 0.051 µM and 0.057 µM.
“45-46m2 IgG (NIH45-46 with G54W in the heavy chain and S28Y in the light chain) (antibody)”: the IC50 (pseudovirus neutralization) was determined as 0.001 µg/mL in experiment [1] and 0.006 µg/mL in experiment [2]. This substance also had an IC50 (read off the curve) in [3] of 0.01 µg/mL. For the same substance, the IC50 (pseudovirus neutralization, TZM-bl cells) in experiment [11] stood at 2.23 µg/mL; with YU-2^N279H (HIV-1), 0.452 µg/mL; in experiment [7], 0.435 µg/mL; in [12], 2.23 µg/mL. Moreover, in experiment [4], the IC50 (pseudovirus neutralization, TZM-bl cells), first of the two values given was found to be 0.1 µg/mL. The IC50 (pseudovirus neutralization, TZM-bl cells), second of the two values given in experiment [4] was above 50 µg/mL. For the same substance, the plateau of the in vitro neutralization curve in [6] was 50%.
